Results as given in the supplement of paper PMC11246515.
± gives the standard deviation of the averaged measurements.

Test: total protein half-life in vivo (active degradation + dilution); higher = more stable protein
[1] = E. coli NCM3722 delta-clpP, growth: N-lim chemostat, doubling time 6 h
[2] = E. coli NCM3722 delta-hslV, growth: N-lim chemostat, doubling time 6 h
[3] = E. coli NCM3722 delta-lon, growth: N-lim chemostat, doubling time 6 h
[4] = E. coli NCM3722 delta-smpB, growth: N-lim chemostat, doubling time 6 h
[5] = wild type E. coli NCM3722, growth: C-lim chemostat, doubling time 3 h
[6] = wild type E. coli NCM3722, growth: C-lim chemostat, doubling time 6 h
[7] = wild type E. coli NCM3722, growth: C-lim chemostat, doubling time 12 h
[8] = wild type E. coli NCM3722, growth: N-lim chemostat, doubling time 6 h
[9] = wild type E. coli NCM3722, growth: N-lim chemostat, doubling time 12 h
[10] = wild type E. coli NCM3722, growth: P-lim chemostat, doubling time 6 h
[11] = wild type E. coli NCM3722, growth: P-lim chemostat, doubling time 12 h
[12] = E. coli NCM3722 delta-clpP delta-lon delta-hslV, growth: N-lim chemostat, doubling time 6 h

Sequence | total protein half-life in vivo [1] [h] | total protein half-life in vivo [2] [h] | total protein half-life in vivo [3] [h] | total protein half-life in vivo [4] [h] | total protein half-life in vivo [5] [h] | total protein half-life in vivo [6] [h] | total protein half-life in vivo [7] [h] | total protein half-life in vivo [8] [h] | total protein half-life in vivo [9] [h] | total protein half-life in vivo [10] [h] | total protein half-life in vivo [11] [h] | total protein half-life in vivo [12] [h]
MLPKAARIPHAMTLHGDTRIDNYYWLRDDTRSQPEVLDYLQQENSYGHRVMASQQALQDRILKEIIDRIPQREVSAPYIKNGYRYRHIYEPGCEYAIYQRQSAFSEEWDEWETLLDANKRAAHSEFYSMGGMAITPDNTIMALAEDFLSRRQYGIRFRNLETGNWYPELLDNVEPSFVWANDSWIFYYVRKHPVTLLPYQVWRHAIGTPASQDKLIYEEKDDTYYVSLHKTTSKHYVVIHLASATTSEVRLLDAEMADAEPFVFLPRRKDHEYSLDHYQHRFYLRSNRHGKNFGLYRTRMRDEQQWEELIPPRENIMLEGFTLFTDWLVVEERQRGLTSLRQINRKTREVIGIAFDDPAYVTWIAYNPEPETARLRYGYSSMTTPDTLFELDMDTGERRVLKQTEVPGFYAANYRSEHLWIVARDGVEVPVSLVYHRKHFRKGHNPLLVYGYGSYGASIDADFSFSRLSLLDRGFVYAIVHVRGGGELGQQWYEDGKFLKKKNTFNDYLDACDALLKLGYGSPSLCYAMGGSAGGMLMGVAINQRPELFHGVIAQVPFVDVVTTMLDESIPLTTGEFEEWGNPQDPQYYEYMKSYSPYDNVTAQAYPHLLVTTGLHDSQVQYWEPAKWVAKLRELKTDDHLLLLCTDMDSGHGGKSGRFKSYEGVAMEYAFLVALAQGTLPATPAD | 3.82 ± 0.14 | 4.03 ± 0.38 | 4.8 ± 0.56 | 3.5 ± 0.68 | 3.24 ± 0.09 | 5.11 ± 0.12 | 10.8 ± 3.6 | 4.31 ± 0.24 | 8.85 | 5.9 ± 1.3 | 10.3 ± 0.86 | –
MGAELVKWVKSHKIDAHIITFVAKMPYIDSIKLLEAGAKGCVWKTSHPAKLNRAIDSISNGYTYFDSVHMDCEKISSRYSSDNQLTNRESEILQLIADGKTNKEIANFLQLSRKTVETHRLNIMKKLDVHSGIELIKTALRMGVCTI | – | – | 5.01 | 5.08 ± 0.25 | 2.7 | 4.55 ± 1.5 | 8.41 ± 2.9 | 5.22 ± 0.2 | – | – | – | 5.42
MLKIFNTLTRQKEEFKPIHAGEVGMYVCGITVYDLCHIGHGRTFVAFDVVARYLRFLGYKLKYVRNITDIDDKIIKRANENGESFVAMVDRMIAEMHKDFDALNILRPDMEPRATHHIAEIIELTEQLIAKGHAYVADNGDVMFDVPTDPTYGVLSRQDLDQLQAGARVDVVDDKRNPMDFVLWKMSKEGEPSWPSPWGAGRPGWHIECSAMNCKQLGNHFDIHGGGSDLMFPHHENEIAQSTCAHDGQYVNYWMHSGMVMVDREKMSKSLGNFFTVRDVLKYYDAETVRYFLMSGHYRSQLNYSEENLKQARAALERLYTALRGTDKTVAPAGGEAFEARFIEAMDDDFNTPEAYSVLFDMAREVNRLKAEDMAAANAMASHLRKLSAVLGLLEQEPEAFLQSGAQADDSEVAEIEALIQQRLDARKAKDWAAADAARDRLNEMGIVLEDGPQGTTWRRK | 4.75 ± 0.24 | 4.85 ± 0.22 | 5.1 ± 0.24 | 4.97 ± 0.14 | 3.24 ± 0.29 | 5.41 ± 0.088 | 9.907 ± 0.043 | 4.84 ± 0.17 | 7.97 ± 0.15 | 6.14 ± 0.47 | 11.5 ± 0.18 | 5.28 ± 0.8
MKIRSQVGMVLNLDKCIGCHTCSVTCKNVWTGREGMEYAWFNNVETKPGIGYPKNWEDQEEWQGGWVRDVNGKIRPRLGNKMGVITKIFANPVVPQIDDYYEPFTFDYEHLHSAPEGKHIPTARPRSLIDGKRMDKVIWGPNWEELLGGEFEKRARDRNFEAMQKEMYGQFENTFMMYLPRLCEHCLNPSCVATCPSGAIYKREEDGIVLIDQDKCRGWRLCISGCPYKKIYFNWKSGKSEKCIFCYPRIESGQPTVCSETCVGRIRYLGVLLYDADRIEEAASTEREVDLYERQCEVFLDPHDPSVIEEALKQGIPQNVIDAAQRSPVYKMAMDWKLALPLHPEYRTLPMVWYVPPLSPIQSYADAGGLPKSEGVLPAIESLRIPVQYLANMLSAGDTGPVLRALKRMMAMRHYMRSQTVEGVTDTRAIDEVGLSVAQVEEMYRYLAIANYEDRFVIPTSHREMAGDAFAERNGCGFTFGDGCHGSDSKFNLFNSSRIDAINITEVRDKAEGE | 5.74 ± 0.49 | 6.23 ± 0.64 | 6.34 ± 1.3 | 5.77 ± 1.2 | 3.14 ± 0.27 | 5.54 ± 0.12 | 10.3 ± 0.17 | 5.94 ± 0.089 | 12.5 ± 0.46 | 5.68 ± 0.26 | 11.62 ± 0.051 | 6.49 ± 0.73
MSDNLPWKTWTPDDLAPPQAEFVPIVEPEETIIEEAEPSLEQQLAQLQMQAHEQGYQAGIAEGRQQGHKQGYQEGLAQGLEQGLAEAKSQQAPIHARMQQLVSEFQTTLDALDSVIASRLMQMALEAARQVIGQTPTVDNSALIKQIQQLLQQEPLFSGKPQLRVHPDDLQRVDDMLGATLSLHGWRLRGDPTLHPGGCKVSADEGDLDASVATRWQELCRLAAPGVV | – | – | – | – | 2.19 ± 0.17 | 3.64 ± 0.27 | 5.33 ± 0.28 | – | – | – | – | –
